Test results: article PMC13252954

Experiments:
[1] = target: PIΔC SVMP metalloproteinase (MP) domain (Echis ocellatus); experiment: SEC
[2] = target: PII SVMP zymogen (Venom metalloprotease PII-SVMP EOC00006, Echis ocellatus) (Echis ocellatus); experiment: SEC + other: non-reducing SDS-PAGE
[3] = target: integrin αIIbβ3 (human (endogenous in platelets)) (UniProt P08514)
Chain of UniProt P08514 (P08514 32-1039, chain 1 of 2): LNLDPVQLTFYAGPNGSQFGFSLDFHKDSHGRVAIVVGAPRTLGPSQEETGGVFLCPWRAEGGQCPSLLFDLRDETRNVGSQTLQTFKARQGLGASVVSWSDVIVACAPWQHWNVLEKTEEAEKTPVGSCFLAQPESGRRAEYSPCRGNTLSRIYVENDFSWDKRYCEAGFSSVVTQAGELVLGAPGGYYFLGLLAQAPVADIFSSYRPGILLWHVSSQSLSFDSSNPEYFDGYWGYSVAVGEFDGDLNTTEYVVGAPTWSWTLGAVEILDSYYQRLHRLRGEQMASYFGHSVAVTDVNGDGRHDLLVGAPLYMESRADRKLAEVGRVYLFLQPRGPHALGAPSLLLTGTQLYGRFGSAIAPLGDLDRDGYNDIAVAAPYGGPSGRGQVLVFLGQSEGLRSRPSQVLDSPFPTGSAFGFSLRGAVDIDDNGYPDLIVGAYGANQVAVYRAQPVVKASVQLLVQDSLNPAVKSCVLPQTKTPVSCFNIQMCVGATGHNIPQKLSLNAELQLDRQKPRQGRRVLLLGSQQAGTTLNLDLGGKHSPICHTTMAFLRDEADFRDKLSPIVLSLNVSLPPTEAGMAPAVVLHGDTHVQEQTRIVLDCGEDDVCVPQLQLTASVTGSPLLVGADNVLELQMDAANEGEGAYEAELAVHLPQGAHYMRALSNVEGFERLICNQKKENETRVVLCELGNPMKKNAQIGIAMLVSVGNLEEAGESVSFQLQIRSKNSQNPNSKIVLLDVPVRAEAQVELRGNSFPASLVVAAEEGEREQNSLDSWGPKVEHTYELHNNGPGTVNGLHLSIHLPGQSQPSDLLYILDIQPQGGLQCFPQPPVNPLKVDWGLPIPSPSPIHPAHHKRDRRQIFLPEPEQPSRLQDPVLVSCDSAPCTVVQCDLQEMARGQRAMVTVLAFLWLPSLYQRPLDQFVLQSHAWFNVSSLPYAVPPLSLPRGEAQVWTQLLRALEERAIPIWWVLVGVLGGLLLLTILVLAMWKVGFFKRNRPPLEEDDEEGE
Chain of UniProt P08514 (P05106 27-788, chain 2 of 2, further chain): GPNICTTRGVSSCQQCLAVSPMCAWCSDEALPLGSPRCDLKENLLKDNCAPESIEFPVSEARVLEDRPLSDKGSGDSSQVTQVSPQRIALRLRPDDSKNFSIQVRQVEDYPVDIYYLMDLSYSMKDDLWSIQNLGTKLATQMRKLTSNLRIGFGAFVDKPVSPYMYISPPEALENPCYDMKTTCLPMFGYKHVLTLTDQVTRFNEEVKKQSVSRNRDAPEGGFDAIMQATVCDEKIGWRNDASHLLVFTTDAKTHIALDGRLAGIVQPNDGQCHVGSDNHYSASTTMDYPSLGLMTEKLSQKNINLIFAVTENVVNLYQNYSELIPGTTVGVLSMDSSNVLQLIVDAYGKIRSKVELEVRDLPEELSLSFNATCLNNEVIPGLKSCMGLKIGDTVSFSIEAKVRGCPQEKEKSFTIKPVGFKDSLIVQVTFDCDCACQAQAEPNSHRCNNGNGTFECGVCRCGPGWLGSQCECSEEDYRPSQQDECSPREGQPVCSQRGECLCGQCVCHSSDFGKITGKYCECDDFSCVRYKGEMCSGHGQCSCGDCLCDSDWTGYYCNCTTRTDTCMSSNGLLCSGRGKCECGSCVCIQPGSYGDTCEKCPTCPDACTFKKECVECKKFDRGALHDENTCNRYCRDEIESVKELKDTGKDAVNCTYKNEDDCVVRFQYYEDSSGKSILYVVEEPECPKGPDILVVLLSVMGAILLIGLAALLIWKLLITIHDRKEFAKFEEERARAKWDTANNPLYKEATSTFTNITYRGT

PI SVMP prodomain (domain or fragment)
stoichiometry N [1]: 1

PII SVMP zymogen (Venom metalloprotease PII-SVMP EOC00006, Echis ocellatus) (from UniProt A0A3G1E3U2 1-494) (enzyme)
stoichiometry N [2]: 2

activated PII SVMP (enzyme)
2-MeS-ADP-induced platelet aggregation in human platelet-rich plasma (plate aggregometry), % aggregation at 500 nM SVMP (% aggregation) [3]: 12
